In paper PMC5007552:

Conditions: phosphorylation at S486

Question: With “SGK3: AZD8055 (mTOR catalytic inhibitor, 0.1 uM, 1 h)” as the substance, how does the enzymatic_activity read?
Answer: decreases
